Reference: doi:10.1101/2020.11.11.377994v1

Assays:
[1] = substrate: Nc1ncnc2c1ncn2[C@@H]1O[C@H](COP(=O)(O)OP(=O)(O)OP(=O)(O)O)[C@@H](O)[C@H]1O; assay: purified protein; details: 200 uM dCoA, 10 mM MgCl2, pH 7.4, 37 °C, phosphotransferase
[2] = substrate: CC(C)(COP(=O)(O)OP(=O)(O)OC[C@H]1O[C@@H](n2cnc3c(N)ncnc32)[C@H](O)[C@@H]1O)[C@@H](O)C(=O)NCCC(=O)NCCS; assay: purified protein; details: 200 uM ATP, 10 mM MgCl2, pH 7.4, 37 °C

B1: DPCK (DPCK-WT), putative dephospho-CoA kinase (Aquifex aeolicus VF5) (protein)
chain: MKRIGLTGNIGCGKSTVAQMFRELGAYVLDADKLIHSFYRKGHPVYEEVVKTFGKGILDEEGNIDRKKLADIVFKDEEKLRKLEEITHRALYKEIEKITKNLSEDTLFILEASLLVEKGTYKNYDKLIVVYAPYEVCKERAIKRGMSEEDFERRWKKQMPIEEKVKYADYVIDNSGSIEETYKQVKKVYEELTRDP
[1]
  Km: 12.7 ± 0.3 µM
  kcat: 0.73 ± 0.025 s⁻¹
[2]
  Km: 24.3 ± 1.7 µM
  kcat: 0.817 ± 0.0867 s⁻¹
